Key:
[1] = system: recombinant human MCP-1(1-76) starting with an N-terminal glutamine
[2] = system: recombinant human MCP-1 N1pE (human MCP-1 with an N-terminal pyroglutamate)

With “recombinant human Aminopeptidase P (R&D Systems)” the “N-terminal cleavage, Maldi-TOF mass spectrometry” value [1] was “cleavage of human MCP-1(1-76) bearing an N-terminal glutaminyl residue by recombinant human Aminopeptidase P” and the “N-terminal cleavage, Maldi-TOF mass spectrometry” value [2] was “conferring resistance against N-terminal degradation by post-proline cleaving enzymes, e.g. DP4 and aminopeptidase P”.
